The results in this text go back to publication PMC4369792.

Assay [1] addresses fibronectin from human plasma (human). The experiment in a line: single-molecule force spectroscopy.
In assay [2] the target is salivary agglutinin (SAG) glycoprotein complex (UniProt Q9UGM3). The experiment in a line: single-molecule force spectroscopy.
The target is the same in assay [3]. The experiment in a line: single-cell force spectroscopy.

Sequence of UniProt Q9UGM3 (Q9UGM3 whole entry, looked up, one chain of several): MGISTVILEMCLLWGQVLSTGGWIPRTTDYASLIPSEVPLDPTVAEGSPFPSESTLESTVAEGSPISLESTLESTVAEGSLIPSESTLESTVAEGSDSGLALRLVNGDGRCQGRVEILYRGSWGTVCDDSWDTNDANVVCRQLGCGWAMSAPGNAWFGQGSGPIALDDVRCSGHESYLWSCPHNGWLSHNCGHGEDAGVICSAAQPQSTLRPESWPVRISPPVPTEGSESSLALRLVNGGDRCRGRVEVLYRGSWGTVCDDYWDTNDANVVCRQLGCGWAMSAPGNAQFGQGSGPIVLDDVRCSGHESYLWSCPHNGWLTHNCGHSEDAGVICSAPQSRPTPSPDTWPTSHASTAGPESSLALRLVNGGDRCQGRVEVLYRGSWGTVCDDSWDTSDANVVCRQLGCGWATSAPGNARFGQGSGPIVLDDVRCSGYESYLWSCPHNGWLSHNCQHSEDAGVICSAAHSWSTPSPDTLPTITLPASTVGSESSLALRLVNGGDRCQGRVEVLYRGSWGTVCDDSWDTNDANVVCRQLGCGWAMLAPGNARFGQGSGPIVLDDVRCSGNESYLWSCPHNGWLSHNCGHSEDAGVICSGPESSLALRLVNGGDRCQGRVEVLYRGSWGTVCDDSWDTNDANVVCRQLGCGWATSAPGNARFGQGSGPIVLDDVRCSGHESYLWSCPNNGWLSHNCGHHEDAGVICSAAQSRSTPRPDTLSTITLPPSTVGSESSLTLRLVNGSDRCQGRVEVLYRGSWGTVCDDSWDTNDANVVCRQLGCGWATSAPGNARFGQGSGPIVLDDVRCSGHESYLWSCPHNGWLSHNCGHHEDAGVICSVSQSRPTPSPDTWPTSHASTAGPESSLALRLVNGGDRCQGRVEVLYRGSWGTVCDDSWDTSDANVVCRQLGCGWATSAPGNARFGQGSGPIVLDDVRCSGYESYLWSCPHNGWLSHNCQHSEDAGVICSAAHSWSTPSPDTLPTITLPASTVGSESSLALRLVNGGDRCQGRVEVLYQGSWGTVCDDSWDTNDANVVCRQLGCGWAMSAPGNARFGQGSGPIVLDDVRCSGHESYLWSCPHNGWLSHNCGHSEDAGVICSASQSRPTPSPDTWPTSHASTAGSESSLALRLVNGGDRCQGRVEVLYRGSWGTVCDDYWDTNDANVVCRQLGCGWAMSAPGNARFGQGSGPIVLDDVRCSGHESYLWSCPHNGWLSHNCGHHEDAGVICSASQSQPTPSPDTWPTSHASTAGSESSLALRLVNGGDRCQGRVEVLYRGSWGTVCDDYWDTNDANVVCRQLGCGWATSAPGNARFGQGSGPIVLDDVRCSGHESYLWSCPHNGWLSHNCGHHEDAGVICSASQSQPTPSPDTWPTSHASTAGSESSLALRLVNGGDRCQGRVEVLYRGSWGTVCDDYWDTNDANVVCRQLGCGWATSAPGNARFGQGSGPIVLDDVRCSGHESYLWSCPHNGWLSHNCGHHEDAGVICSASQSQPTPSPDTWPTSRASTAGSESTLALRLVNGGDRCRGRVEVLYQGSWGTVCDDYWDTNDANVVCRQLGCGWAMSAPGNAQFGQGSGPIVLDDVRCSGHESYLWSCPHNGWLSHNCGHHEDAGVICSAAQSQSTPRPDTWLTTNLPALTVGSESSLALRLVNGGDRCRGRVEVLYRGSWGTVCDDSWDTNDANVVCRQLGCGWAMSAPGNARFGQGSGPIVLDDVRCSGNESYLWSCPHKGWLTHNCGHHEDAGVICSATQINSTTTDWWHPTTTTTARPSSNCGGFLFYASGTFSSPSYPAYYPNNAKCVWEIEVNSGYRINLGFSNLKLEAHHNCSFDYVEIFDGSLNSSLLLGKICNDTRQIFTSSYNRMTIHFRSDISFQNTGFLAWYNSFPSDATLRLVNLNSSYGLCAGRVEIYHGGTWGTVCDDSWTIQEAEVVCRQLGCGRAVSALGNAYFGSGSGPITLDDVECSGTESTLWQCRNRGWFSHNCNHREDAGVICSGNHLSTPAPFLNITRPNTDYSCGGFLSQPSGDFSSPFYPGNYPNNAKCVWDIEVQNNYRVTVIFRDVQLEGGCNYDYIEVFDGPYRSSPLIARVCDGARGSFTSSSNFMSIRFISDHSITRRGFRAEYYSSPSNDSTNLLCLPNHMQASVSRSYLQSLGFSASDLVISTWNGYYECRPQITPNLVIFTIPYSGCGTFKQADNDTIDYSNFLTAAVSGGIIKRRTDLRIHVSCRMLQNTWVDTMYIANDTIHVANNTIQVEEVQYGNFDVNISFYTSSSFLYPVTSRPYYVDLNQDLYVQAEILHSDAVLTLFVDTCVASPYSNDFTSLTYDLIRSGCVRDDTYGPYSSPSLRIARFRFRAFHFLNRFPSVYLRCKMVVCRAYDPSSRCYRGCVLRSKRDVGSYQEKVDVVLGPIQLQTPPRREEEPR

Substance “P1 globular head fragment (A3VP1) (domain or fragment)” registered a binding frequency in assay [1] of 49%.

As to “full-length P1 adhesin of Streptococcus mutans (from UniProt P23504 39-1532) (natural protein)”, in assay [2], the most probable adhesion force worked out at 57 pN. In assay [1], this substance gave a mean adhesion force of 46 pN.

In turn, “cell surface-localized P1 on living Streptococcus mutans NG8 cells (from UniProt P23504 39-1532) (natural protein)” returned an adhesion force in assay [3] of 100 to 1500 pN.
